Laboratory results taken from the RNAGym collection of RNA variant scans (doi:10.7554/elife.90254).

B1: LINE1-mini (parent)
chain: GGCAGAGCUCAACACAGCGUGGCAAAGUGGCUGUGGCUAGACUGCC

Variants of: B1
Experiment: self-cleavage, relative activity (ratio to wild type); higher = more cleavage; in vitro, sequencing; the parent is a self-cleaving ribozyme

Variant	self-cleavage
A11G	0.04
A11C U34C	0.04
A11C U34G	0.04
A11C U34A	0.02
A11C G35C	0.03
A11C G35A	0.03
A11C G35U	0.02
A11G A12U	0.04
A11G A12C	0.02
A11G A12G	0.02
A11C A24G	0.06
A11C A24C	0.04
A11C A24U	0.11
A11G A24C	0.03
A11G A24U	0.02
A11G A24G	0.02
A11G G21U	0.03
A11G G21A	0.05
A11G G21C	0.02
A11G A41G	0.02
A11G A41C	0.03

Variant	self-cleavage
A11G A41U	0.02
A11C U20C	0.02
A11C U20G	0.04
A11C U20A	0.02
A11G G29C	0.3
A11G G29A	0.04
A11G G29U	0.03
A11G C45G	0.03
A11G C45U	0.03
A11G C45A	0.03
A11C A26U	0.11
A11C A26C	0.03
A11C A26G	0.05
A11G C37A	0.02
A11G C37U	0.05
A11G C37G	0.03
A11G C42A	0.02
A11G C42G	0.01
A11G C42U	0.01
A11G G22C	0.02
A11G G22U	0.05

Variant	self-cleavage
A11G G22A	0.03
A11G C31G	0.03
A11G C31A	0.02
A11G C31U	0.02
A11G A25G	0.05
A11G A25U	0.02
A11G A25C	0.03
A11C U38C	0.04
A11C U38A	0.02
A11C U38G	0.02
A11C G29U	0.07
A11C G29A	0.06
A11C G29C	0.05
A11C C18A	0.02
A11C C18G	0.05
A11C C18U	0.04
A11G A14G	0.02
A11G A14U	0.03
A11G A14C	0.02
A11C C45G	0.02
A11C C45A	0.05

Variant	self-cleavage
A11C C45U	0.12
A11C C46U	0.11
A11C C46A	0.03
A11C C46G	0.02
A11C G40U	0.02
A11C G40C	0.04
A11C G40A	0.02
A11C C13G	0.03
A11C C13U	0.03
A11C C13A	0.03
A11C G21C	0.08
A11C G21A	0.26
A11C G21U	0.1
A11G G17C	0.04
A11G G17A	0.04
A11G G17U	0.03
A11C G17A	0.03
A11C G17U	0.03
A11C G17C	0.02
A11C G33A	0.04
